The record followed here is the nanobody polyreactivity screen of Harvey et al. (2022).

This data set can be described thus: yeast display, Sf9 membrane polyspecificity reagent, FACS + sequencing; frameworks hold sequencing errors. The procedure, abridged:
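After 36–48 hours of galactose induction, yeast (Saccharomyces cerevisiae BJ5465) displaying a synthetic nanobody library were stained at 4 °C for 1 hour with 10% biotinylated, detergent-solubilized Sf9 membrane reagent. Streptavidin microbeads enriched the stained cells before FACS sorting into low and high (top ~1%) gates on anti-HA and streptavidin fluorescence. Each clone's polyreactivity label reflects its gate of origin.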
Consider “QVQLVESGGGLVQAGGSLRLSCAASGSIFTWNGMGWYRQAPGKERELVAAISGSGGTTYADSVKGRFTISRDNAKNTVYLQMNSLKPEDTAVYYCARRVWVRDYPFGYARYGYWGQGTQVTVSS”, for which the “polyreactivity (PSR sort gate)” value is listed as “low polyreactivity”. For “QVQLVESGGGLVQAGGSLRLSCAASGRIFTRYAMGWSRQAPGKERELVAAISSGGSTYYADSVKGRYTISRDKAKNTVYLQMNSLKPEDTAVYYCAAGTWWWYKFNYWGQGTQVTVSS” the value was “high polyreactivity”; for “QVQLVESGGGLVQAGGSLRLSCAASGSTFPYYAMGWYRQATGKERELVAAISSGGRTTYADSVKGRFTISRDNAKNTVYLQMNSLKPEDTAVYYCNRRYTHGGFSKYEYWGQGTQVTVSS”, “high polyreactivity”. As to “QVQLVESGGGLVQAGGSLRLSCAASGLTSWYYAMGWYRQAPGKERELVAAITSGGSTYYADSVKGRFTISRDNAKNTVYLQMNSLKPEDTAVYYCAKKKRSYYYYPYDYWGQGTQVTVSS”, the “polyreactivity (PSR sort gate)” value is “high polyreactivity”. For “QVQLVVSGGGLVQAGGSLRLSCAASGRFFGYYARGWYRQAPGEERELVAAITRGGSTNYADSVKGRFTISRDNAKNTVYLQMNSLKPEDTAVYYCNARRYRPGTASYDYWGQGTQVTVSS” the value was “high polyreactivity”; for “QVQLVESGGGLVQAGGSLRLSCAASGRIFQPYTMGWYRQAPGKERELVAAITRSGGSTYYADSVKGRFTISRDNAKNTVYLQMNSLKPEDTAVYYCAADSRPYGKYDYWGQGTQVTVSS”, “high polyreactivity”; for “QVQLVESGGGLVQAGGSLRLSCAASGRTFIRYCMGWYRQAPGKERELVAAITSRGGRTYYADSVKGRFTISRDNAKNTVYLQMNSLIREDTAVYYCAADTTWYSRYRHLWYRYYYWGQGTQVTVSS”, “high polyreactivity”. For “QVQLVESGGGLVQAGGSLRLSCAASGRSFYRYVMGWYRQAPGTERELVAAMTWSGGSTYYADSVKGRFTISRDNAKNTVYLQMNSLKPEDTAVYYCAADWSTWGVDYWGQGTQVTVSS” the value was “low polyreactivity”; for “QVQLVESGGGLVQAGGSLRLSCAASGRIFNYYAMGWYRQAPGTERELVAAISTDGGSTYYADSVKGRFTISRDNAKNSVYLQMNSLKPEDTAVYYCAAYQYYDFSYSYDYWGQGTQVTVSS”, “low polyreactivity”. The same measure for “QVHLVESGGGLVQAGGSLRLSCAASGSTFDAYDMGWYRQAPGKERELVAAISSSGGSTYYADSVKGRFTISRDNAKNTVYLQMNSLKPEDTAVYYCAADWSVWDYDYWGQGTQVTVSS”: “low polyreactivity”; for “QVQLVESGGGLVQAGGSLRLSCAASGITYRYNAMGWYRQAPGKEREMVAAISTSGGNTYYADSVKGRFTISRDNAKYTVYLQLNSLKPEDTAVYYCAVDGEYWYDYDGDYWGQGTQVTVSS”: “low polyreactivity”.

Turning to “QVQLVESGGGLVQAGGSLRLSCAASGSIFDLNAMGWYRQAPGKERELVAAISSGGGTYYADSVKGRFTISRDNAKNTVYLKMNSLKPEDTAVYYCKRVTRWTYNYWGQGTQVSVSS”, the “polyreactivity (PSR sort gate)” value is “high polyreactivity”.

Take “QVQLVETGGGLVQAGGSLRLSCAASGFIFVDYAMGWYRPAPGKERELVAAITSNDDRTYYADSVKGRFTISRDNAKNTVYLQMNSLKPEDTAVYYCAAGGWGATADATFTYLYDYWGQGTQVTVSS”: the “polyreactivity (PSR sort gate)” value was “low polyreactivity”. The same measure for “QLQLVESGGGLVQAGGSLRLICADSGRTFPSNTMGWYRQAPGKERELVAAITNSGGSTYYADSVKGRFTISRDNAKNTVYLQMNSLKPEDTAVYYCAKVVGAPYVEYDYWGQGTQVSVSS”: “low polyreactivity”; for “QVQLVESGGGLVQAGGSLRLSCAASGFTFRNNAMGWYRQAPGKERELVAAISYSGGSTYYADSVKGRFTISRDNAKNTVYLQMNSLKPEDTAVYYCNPRRWSYLEYDYWGQGTQVTVSS”: “low polyreactivity”.

“HVQLVESGGGLVQAGGSLRLSCAASGSIFFVYDMGWYRQAPGKERELVAAITWSGGRTTYADSVKGRFTISRDNAKNTVYLQMNSLKPVDTAVYYCAAGRVRLRILWGKRGWYDYWGQGTQVTVSS”: the “polyreactivity (PSR sort gate)” value is given as “low polyreactivity”. For “QVQHVESGGGLVQAGGSLRLSCAASGYTFYIYAMGWYRQAHGKERELVATISSSGGGTYYADSVKGRFTISRDNAKNTVYLQMNSLTPEDTAVYYCNADGWYWQAQGYDYWGQGTQVTVSS” the value was “low polyreactivity”; for “QVQLVESGGGLVQAGGSLRLSCAASGRTFWRNAMGWYRQAPGKERELVAAISRGASTNYADSVKGRYTISRDNAKNTVYLQMNSLKPEDTAFYYCAARYYYRYNYWGQGTQVTVSS”, “high polyreactivity”; for “QVQLVESGGGLVQAGGSLRLSCAASGFIFPLYTMGWYRQAPGKERELVAANSVTGGSTYYADSVKGRFTISRDNAKNTVYLQMNSLKPEETAVYYCNAYLFFLNRVWSFDYWGQGTQVTVSW”, “high polyreactivity”. For “QVQLQESGGGLVQAGGSPRLSCAASGTITRQYYMGWYRQAPGKERGFVAGIKSGSTTYYADNVKGCFTISRDNAKNAAYLQMNSLKPEDTAVYYCAIRPSYTIPYWYWGQGTQVTVSS” the value was “high polyreactivity”; for “QVQLVESCGGLVQAGGSLRLSCAASGRIFKYNPMGWYRQAPGQERELVASITASGGRTYYADSVKGRFTISRDIAKNTVYLQMNSLKTEDTAVYYCAAGRPFSKYGYWRQGTQVTVSS”, “high polyreactivity”.

Consider “QVQLVESGGGLVQAGGSLRFSCAASVFTFYSYAMGSDSQSPGKESEFVAAINQTSGSTTYADSVKGRFTISRDYGKNTVYLKMISLKPEDTAVYYCNAYQYYERYDTYLFRYDYWGQGTQVTVSS”, for which the “polyreactivity (PSR sort gate)” value is “low polyreactivity”. For “QVQLVESGGGLVQAGGSLRLSCAASGFIFSPYAMGWYRQAPGKERELVATITWSGGRTYYADSVKGRFTISRDNAKNTVYLQMNSLKPEDTAVYYCNADGYQPALNKDFGYWGQGTQVTVSS” the value was “low polyreactivity”. The same measure for “QVQLVESGGGLVQAGGSLRLSCAASGITFRNYAMVWSRQAPGKERELVADITTGGSTYADSVKGRFTISRDNAKNTVYLQMISLNPEDTAVYYCAADRDFRTPRLYYWGQGTQVTVSS”: “low polyreactivity”; for “QVQLVESGGGLVQAGGSLRLSCAASGFIFSYYAMGWYRPAPGKERELVAAITDSGGSTYYADSVKGRFTISRDNAKNSVYLQMNSLKPEYTAVYYCATEIEQTAEYDYLGQGTQVTVSS”: “low polyreactivity”. As to “QVQLVESGGGLVQAGGSLRLSCAASGRIFDPYAMGWYRQAPGKERELVATITRSGGSTYYADSVKGRFTISRDNAKNTVYLQMNSLKPEDTAVYYCAVGDGFEYDWGQGTQVTVSS”, the “polyreactivity (PSR sort gate)” value is on record as “low polyreactivity”. As to “QVQLVESGGGLVQAGGSLRLRCAASGSIMGRYAMGWYRQAPGKERELVAAITSSGTRTYYPDSVKGRFTISRDNANNTVYLQMNSLKPEDTAVYYCAAYLAITRSYYIVPYDYWGQGTQVTVSS”, the “polyreactivity (PSR sort gate)” value was “high polyreactivity”. Take “QVQLVESGGGLVQAGGSLRLSCAASGFTLSSNPMGWNRQEPGKETELVAAISFNSTSTYYADSVKGRFTISRDNAKNTVYLQMKSLNPEDTAVYYCAADVPRVQSEPEYDYWGQGTQVTVSS”: the “polyreactivity (PSR sort gate)” value is “low polyreactivity”. The same measure for “QVQLVESGGGLVQAGGSLRLSCAASGSTFSRYAMGWYRPAPGKERELVATITRGGSTNYADSVKGRFTISRDNAQNTVYLQMTSLKPEDTAVYYCNKTARYVDGRGDYWGQGTQVTVSS”: “low polyreactivity”; for “QVQLVESGGGLVQAGGSLRLSCAASGRTFGGNAMGWYRQAPGKERELVAAITGRGGSTYYADSVKGRFTISRDNAKNTVYLQMNSLKPEDTAVYYCAKQFKRGYGYDYWGQGTQVTVSS”: “low polyreactivity”; for “QVQLVESGGVLVQAGGSLRLSCAATGSIINRYAMGWYRQAPRKERELVAAISSTGSTYYADSVKGRFTISRDNAKNTVYLQLNSLKPEDTAVYYCNADATLDWLRVDSYVYWGQGTQVTVSS”: “low polyreactivity”.

Turning to “QVQLVESGGGLVQAGGSLRLSCAASGSTLAPYVKGWYIQAPGTERELVAVISTRTGRTYYADSVKGRFTISRDNAKNTVSLQMNSLKPEDTAVYYCAAAYGWSWYRYDYWGQGTQVTVSS”, the “polyreactivity (PSR sort gate)” value is “high polyreactivity”. On to “QVQLVESVGGLVQAGGSLRLSCAASGFTFSWSTKGWYRQAHAKERELVATISWSGSRTYYADSVKGRFTISRDNAKNTVYLEINSLKPEDTAVYYCNVAPHRQVFYTGQYDYWGQGTQVTVSS”, for which the “polyreactivity (PSR sort gate)” value is “high polyreactivity”.

In the case of “QVHLVESGGVLVQAGGSLRLSCAASGSIFDDYAMGWYRQAPGKERELVAAISSSGTSTYYADSVKGRFTISRDTANNTVYLQMNSLKPEDTAVYYCAARSAILDYWGQGTQVTVSS”, the “polyreactivity (PSR sort gate)” value is recorded as “low polyreactivity”. For “QVQLVESGGGLVQAGGSLRLSCAASGSTFIDYAMGWYRQAPGKERELVAAITNGGNTKYADSVKGRFTISRDNAKNTVYLLMISLNPEDTAVYYCAREPSIFTPSYDYWGQGTQVTVSS” the value was “low polyreactivity”; for “QLQLVESVGGLVQAGGSLRLSCAGSGRIFGRSAMGWYTHAPGKHRALVAAISRSGGSTYYADSVKGRVTISRDKAKNTVYLQMYSLKPEDTAVYNCNRRYITYNDDYWGQGTQVTVSS”, “high polyreactivity”.

For the sequence “QVQLVESGGGLVQAGGSLRLSCAASGRTFRSNAMGWNIQAPGKERELVAAITRGRRTYYADSVKGRFTISRDNAKNTVYLQMNSMKPEDTAVYYCAGVGRYACRLDYWGQGTQVTVSS”, the “polyreactivity (PSR sort gate)” value is on record as “high polyreactivity”. Take “QDQHVESGGGLVQAGGSLRLSCAASGSTFTGYDMGRYRQAPGKERELVAAISWNGGSTYYADSVKGRFTISRDNAKNTVYLQMNSLKPEDTAVYYCAKVTLTHSRFRYYYWGQGTQVTVSS”: the “polyreactivity (PSR sort gate)” value was “high polyreactivity”. The same measure for “QVQLVESGGGLVQAGGSLRLSCAASGRIFYYNAMGWFRQAPGQERELVAAITSGGSTNYADSVKGRFTISRDNAKNTVYLQMNSLTPEDTAVYYCNARRYGSPRSEVHYDYWGQGTQVTVSS”: “low polyreactivity”; for “QVQLVESGGGLVQAGGSLRLSCAASGSIFARYTMGWYRQAPGKERELVARITSSGGSTYYADSVKGRFTISRDNAKNTVYLQMNSLKPEDTAVYYCAARYRRYVRFQGDYWGQGTQVTVSS”: “high polyreactivity”; for “QVQLVESGGGLVQAGGSLRLSCAASGSILRTYTMGWYRQATGKERELVAAISSSGGRTYYADSVKGRFTISRDNAKNTVYLQMNSLKPEDTAVYYCNAGGYRYRSYDYWGQGTQVTVSS”: “high polyreactivity”.
